Assay results published in patent US20230303994.

Protein	Activity PPI cleavage (pre-pro-human insulin)	Selectivity (pre-pro-human insulin) [%]	Purity Insulin Glargine (pre-pro-insulin glargine) [area %]	Yield (pre-pro-insulin glargine) [%]	desArg (pre-pro-insulin glargine) [area %]	desThr (pre-pro-insulin glargine) [area %]
trypsin variant SEQ ID NO: 95 (protein) IVGGYTCAANSIPYQVSLNSGSHRCGGSLINSQWVVSAAHCYKPRIQVRLGEHNIHVLEGNEQFINAAKIITHPNFNPNTLDNDIMLIKLSSPATLNSHVATVSLPRSCAAAGTECLISGWGNTSSSGSSMPSLLQCLKAPVLSDSSCKSSYPGQITGNMICVGFLEGGADACQGDSGGPVVCNGQLQGIVSSGYGCAQKNKPGVYTKVCNYVNWIQQTIAAN	yes	>90	90	> 90	1	0.6
trypsin variant SEQ ID NO: 96 (protein) IVGGYTCAANSIPYQVSLNSGSHRCGGSLINSQWVVSAAHCYKPRIQVRLGEHNIDVLEGNEQFINAAKIITHPNFNPNTLDNDIMLIKLSSPATLNSHVATVSLPRSCAAAGTECLISGWGNTSSSGSSMPSLLQCLKAPVLSDSSCKSSYPGQITGNMICVGFLEGGADACQGDSGGPVVCNGQLQGIVSSGYGCAQKNKPGVYTKVCNYVNWIQQTIAAN	yes	>90	78.7	> 80	0.7	0.3
trypsin variant SEQ ID NO: 97 (protein) IVGGYTCAANSIPYQVSLNSGSHRCGGSLINSQWVVSAAHCYKPRIQVRLGEHNIHVLEGNEQFINAAKIITHPNFNPNTLDNDIMLIKLSSPATLNSAVATVSLPTSCAAAGTECLISGWGNTASSGSSMPSLLQCLKAPVLSDSSCKSSYPGQITGNMICVGFLEGGADACQGDSGGPVVCNGQLQGIVSSGYGCAQKNKPGVYTKVCNYVNWIQQTIAAN	yes	>90	89.4	> 90	< 0.5	1.2
trypsin variant SEQ ID NO: 98 (protein) IVGGYTCAANSIPYQVSLNSGSHRCGGSLINSQWVVSAAHCYKPRIQVRLGEHNIHVLEGNEQFINAAKIITHPNFNPNTLDNDIMLIKLSSPATLNSAVATVSLPTSCAAAGTECLISGWGNTASSGSSMPSLLQCLKAPVLSDSSCKSSYPGQITGNMICVGFLEGGADSCQGDSGGPVVCNGQLQGIVSSGYGCAQKNKPGVYTKVCNYVNWIQQTIAAN	yes	>90	89.4	> 90	0.9	2.7
trypsin variant SEQ ID NO: 99 (protein) IVGGYTCAANSIPYQVSLNSGSHRCGGSLINSQWVVSAAHCYKSRIQVRLGEHNIHVLEGNEQFINAAKIITHPNFNPNTLDNDIMLIKLSSPATLNSNVATVSLPTSCAAAGTECLISGWGNTSSSGSSYPSLLQCLKAPVLSDSSCKSSYPGQITGNMICVGFLEGGADACQGDSGGPVVCNGQLQGIVSSGYGCAQKNKPGVYTKVCNYVNWIQQTIAAN	yes	>80	89.2	> 90	0.9	1
trypsin variant SEQ ID NO: 100 (protein) IVGGYTCAANSIPYQVSLNSGSHRCGGSLINSQWVVSAAHCYKPRIQVRLGEHNIDVLEGNEQFINAAKIITHPNFNPNTLDNDIMLIKLSSPATLNSHVATVSLPTSCAAAGTECLISGWGNTCSSGSSMPSLLQCLKAPVLSDSSCKSSYPGQITGNMICVGFLEGGADACQGDSGGPVVCNGQLQGIVSSGYGCAQKNKPGVYTKVCNYVNWIQQTIAAN	yes	>90	80	> 80	0.7	0.3
trypsin variant SEQ ID NO: 101 (protein) IVGGYTCAANSIPYQVSLNSGSHRCGGSLINSQWVVSAAHCYKSRIQVRLGEHNIHVLEGNEQFINAAKIITHPNFNPNTLDNDIMLIKLSSPATLNSNVATVSLPTSCAAAGTECLISGWGNTSSSGSSMPSLLQCLKAPVLSDSSCKSSYPGQITGNMICVGFLEGGADACQGDSGGPVVCNGQLQGIVSSGYGCAQKNKPGVYTKVCNYVNWIQQTIAAN	yes	>90	89.2	> 90	1	0.4
trypsin variant SEQ ID NO: 102 (protein) IVGGYTCAANSIPYQVSLNSGSHRCGGSLINSQWVVSAAHCYKPRIQVRLGEHNIHVLEGNEQFINAAKIITHPNFNPNTLDNDIMLIKLSSPATLNSHVATVSLPTSCAAAGTECLISGWGNTSSSGSSMPSLLQCLKAPVLSDSSCKSSYPGQITGNMICVGFLEGGADACQGDSGGPVVCNGQLQGIVSSGYGCAQKNKPGVYTKVCNYVNWIQQTIAAN	yes	>90	88.7	> 90	0.4	1.2
trypsin variant SEQ ID NO: 103 (protein) IVGGYTCAANSIPYQVSLNSGSHRCGGSLINSQWVVSAAHCYKPRIQVRLGEHNIHVLEGNEQFINAAKIITHPNFNPNTLDNDIMLIKLSSPATLNSHVATVSLPTSCAAAGTECLISGWGNTSSSGSSMPSLLQCLKAPVLSDSSCKSSYPGQITGNMICVGFLEGGADSCQGDSGGPVVCNGQLQGIVSSGYGCAQKNKPGVYTKVCNYVNWIQQTIAAN	yes	>90	90.7	> 90	0.9	1.4
trypsin variant SEQ ID NO: 104 (protein) IVGGYTCAANSIPYQVSLNSGSHRCGGSLINSQWVVSAAHCYKSRIQVRLGEHNIHVLEGNEQFINAAKIITHPNFNPNTLDNDIMLIKLSSPATLNSNVATVSLPTSCAAAGTECLISGWGNTCSSGSSMPSLLQCLKAPVLSDSSCKSSYPGQITGNMICVGFLEGGADACQGDSGGPVVCNGQLQGIVSSGYGCAQKNKPGVYTKVCNYVNWIQQTIAAN	yes	>90	89.3	> 90	1.1	1
porcine trypsin variant no. 105 (SEQ ID NO: 105) (protein) IVGGYTCAANSIPYQVSLNSGSHRCGGSLINSQWVVSAAHCYKSRIQVRLGEHNIHVLEGNEQFINAAKIITHPNFNPNTLDNDIMLIKLSSPATLNSNVATVSLPTSCAAAGTECLISGWGNTASSGSSYPSLLQCLKAPVLSDSSCKSSYPGQITGNMICVGFLEGGADACQGDSGGPVVCNGQLQGIVSSGYGCAQKNKPGVYTKVCNYVNWIQQTIAAN	yes	>90	88.9	> 90	1	0.9
trypsin variant SEQ ID NO: 106 (protein) IVGGYTCAANSIPYQVSLNSGSHRCGGSLINSQWVVSAAHCYKSRIQVRLGEHNIHVLEGNEQFINAAKIITHPNFNPNTLDNDIMLIKLSSPATLNSAVATVSLPTSCAAAGTECLISGWGNTCSSGSSMPSLLQCLKAPVLSDSSCKSSYPGQITGNMICVGFLEGGADACQGDSGGPVVCNGQLQGIVSSGYGCAQKNKPGVYTKVCNYVNWIQQTIAAN	yes	>90	86.8	> 90	0.7	1
trypsin variant SEQ ID NO: 107 (protein) IVGGYTCAANSIPYQVSLNSGSHRCGGSLINSQWVVSAAHCYKPRIQVRLGEHNIHVLEGNEQFINAAKIITHPNFNPNTLDNDIMLIKLSSPATLNSHVATVSLPTSCAAAGTECLISGWGNTCSSGSSMPSLLQCLKAPVLSDSSCKSSYPGQITGNMICVGFLEGGADACQGDSGGPVVCNGQLQGIVSSGYGCAQKNKPGVYTKVCNYVNWIQQTIAAN	yes	>90	88.1	> 90	0.4	1.3
trypsin variant SEQ ID NO: 108 (protein) IVGGYTCAANSIPYQVSLNSGSHRCGGSLINSQWVVSAAHCYKPRIQVRLGEHNIDVLEGNEQFINAAKIITHPNFNPNTLDNDIMLIKLSSPATLNSAVATVSLPTSCAAAGTECLISGWGNTCSSGSSMPSLLQCLKAPVLSDSSCKSSYPGQITGNMICVGFLEGGADACQGDSGGPVVCNGQLQGIVSSGYGCAQKNKPGVYTKVCNYVNWIQQTIAAN	yes	>80	88.8	> 90	0.8	0.7
trypsin variant SEQ ID NO: 109 (protein) IVGGYTCAANSIPYQVSLNSGSHRCGGSLINSQWVVSAAHCYKSRIQVRLGEHNIHVLEGNEQFINAAKIITHPNFNGNTLDNDIMLIKLSSPATLNSNVATVSLPTSCAAAGTECLISGWGNTCSSGSSMPSLLQCLKAPVLSDSSCKSSYPGQITGNMICVGFLEGGADACQGDSGGPVVCNGQLQGIVSSGYGCAQKNKPGVYTKVCNYVNWIQQTIAAN	yes	>90	85.9	> 80	0.7	0.5
trypsin variant SEQ ID NO: 110 (protein) IVGGYTCAANSIPYQVSLNSGSHRCGGSLINSQWVVSAAHCYKSRIQVRLGEHNIHVLEGNEQFINAAKIITHPNFNPNTLDNDIMLIKLSSPATLNSHVATVSLPRSCAAAGTECLISGWGNTCSSGSSMPSLLQCLKAPVLSDSSCKSSYPGQITGNMICVGFLEGGADACQGDSGGPVVCNGQLQGIVSSGYGCAQKNKPGVYTKVCNYVNWIQQTIAAN	yes	>90	90.6	> 90	0.9	0.6
trypsin variant SEQ ID NO: 111 (protein) IVGGYTCAANSIPYQVSLNSGSHRCGGSLINSQWVVSAAHCYKPRIQVRLGEHNIHVLEGNEQFINAAKIITHPNFNPNTLDNDIMLIKLSSPATLNSHVATVSLPTSCAAAGTECLISGWGNTSSSGSSYPSLLQCLKAPVLSDSSCKSSYPGQITGNMICVGFLEGGADACQGDSGGPVVCNGQLQGIVSSGYGCAQKNKPGVYTKVCNYVNWIQQTIAAN	yes	>80	85.9	> 90	0.7	2.6
